According to patent US12290565B2, “Methods of using anti-PSGL-1 antibodies in combination with JAK inhibitors to treat T-cell mediated inflammatory diseases or cancers” (AltruBio Inc., priority 2021, dated 2025):

Tested on: activated T cells
Assay: Fixed-ratio combination cytotoxicity assay, ruxolitinib + LH10, c43B6 or h9F9
Type: cell-based
Conditions: antibody with cross-linker
Description: PBMCs were obtained from peripheral blood of healthy donors. Isolation was performed by density centrifugation of blood on Ficoll (GE Healthcare, Cat #17-1440-03). The harvested PBMCs were used for the generation of activated T cells by incubating with PHA (3 μg/mL, SIGMA, Cat: L2769-10 mg) in RPMI-1640 medium (10% FBS, 1% Penicillin/Streptomycin and 2-Mercaptoethanol) for 2 days, followed by maintenance in medium containing recombinant human Interleukin-2 (5 ng/mL, R&D Systems, Cat. #202-IL-050) for an additional between about 4˜6 days.
In addition to 15A7H, anti-PSGL-1 antibodies LH10, c43B6 and h9F9 were tested for the ability to induce cell death in activated T cells. The purpose of this study was to determine whether apoptosis inducing anti-PSGL-1 antibodies plus ruxolitinib would result in a better cytotoxic effect on activated T cells. The combinatorial effect was evaluated using Chou-Talalay median effect analysis using fixed ratios of antibodies and ruxolitinib in cytotoxicity assays. […]
Cell apoptosis was determined as described in Example 1, and the combinatorial drug effect combination indexes (CI) were analyzed using CalcuSyn (Biosoft, Ferguson, MO, USA), which allows automated simulation of synergism or antagonism, where CI<1 indicates synergy, CI=1 indicates additivity, and CI>1 indicates antagonism.

B1: h9F9: anti-PSGL-1 antibody; heavy chain SEQ ID NO:35, light chain SEQ ID NO:39 (antibody)
heavy: EVQLVESGGGLVQPGGSLKLSCAASGFTFNTNAMNWVRQAPGKGLEWVARIRSKSNNYATYYADSVKDRFTISRDDSKSIIYLQMNSLKTEDTGIYYCVRGGSYWYFDVWGTGTTVTVSSASTKGPSVFPLAPCSRSTSESTAALGCLVKDYFPEPVTVSWNSGALTSGVHTFPAVLQSSGLYSLSSVVTVPSSSLGTKTYTCNVDHKPSNTKVDKRVESKYGPPCPPCPAPPVAGGPSVFLFPPKPKDTLMISRTPEVTCVVVDVSQEDPEVQFNWYVDGVEVHNAKTKPREEQFNSTYRVVSVLTVLHQDWLNGKEYKCKVSNKGLPSSIEKTISKAKGQPREPQVYTLPPSQEEMTKNQVSLTCLVKGFYPSDIAVEWESNGQPENNYKTTPPVLDSDGSFFLYSRLTVDKSRWQEGNVFSCSVMHEALHNHYTQKSLSLSLG
light: DVIMTQSPLSLPVSLGQPASISCRSSQSIVNSNGNTYLEWYLQKPGQSPRLLIYKVSNRFSGVPDRFSGSGSGTDFTLKISRVEAEDVGVYYCFQGSHVPWTFGGGTKLEIKRTVAAPSVFIFPPSDEQLKSGTASVVCLLNNFYPREAKVQWKVDNALQSGNSQESVTEQDSKDSTYSLSSTLTLSKADYEKHKVYACEVTHQGLSSPVTKSFNRGEC
  cytotoxicity ability in activated T cells: had cytotoxicity ability
